Test results taken from paper PMC12638815, “Targeting ACE2 with a camelid antibody inhibits SARS-CoV-2 binding and has protective effects in vivo” (Nature Communications, 2025).

B1: endogenous ACE2 on Vero E6 cells (receptor, simian (endogenous in Vero E6))
chain: QSTIEEQAKTFLDKFNHEAEDLFYQSSLASWNYNTNITEENVQNMNNAGEKWSAFLKEQSTLAQMYPLQAIQNLTVKLQLQALQQNGSSVLSEDKSKRLNTILNTMSTIYSTGKVCNPNNPQECLLLDPGLNEIMEKSLDYNERLWAWEGWRSEVGKQLRPLYEEYVVLKNEMARANHYKDYGDYWRGDYEVNGVDGYDYNRDQLIEDVERTFEEIKPLYEHLHAYVRAKLMNAYPSYISPTGCLPAHLLGDMWGRFWTNLYSLTVPFGQKPNIDVTDAMVNQAWNAQRIFKEAEKFFVSVGLPNMTQGFWENSMLTDPGNVQKVVCHPTAWDLGKGDFRIIMCTKVTMDDFLTAHHEMGHIQYDMAYAAQPFLLRNGANEGFHEAVGEIMSLSAATPKHLKSIGLLSPDFQEDNETEINFLLKQALTIVGTLPFTYMLEKWRWMVFKGEIPKDQWMKKWWEMKREIVGVVEPVPHDETYCDPASLFHVSNDYSFIRYYTRTLYQFQFQEALCQAAKHEGPLHKCDISNSTEAGQKLLNMLKLGKSEPWTLALENVVGAKNMNVRPLLNYFEPLFTWLKDQNKNSFVGWSTDWSPYADQSIKVRISLKSALGANAYKWNDNEMYLFRSSVAYAMRQYFLENKHQTILFGEEDVRVADLKPRISFNFYVTAPKNVSDIIPRTEVEEAIRFSRSRINDAFQLNDNSLEFLGIQSTLIPPYQSPVTTWLIVFGVVMAVIVAGIVVLIFTGIRDRKKKNQARSEENPYASIDISKGENNPGFQNTDDVQTSF
notes: ACE2 endogenously expressed by the simian kidney cell line Vero E6; also called non-human ACE2 (Vero E6); source: endogenous, Vero E6 cells

What was measured:
[1] = target: T1, hACE2 peptidase domain fused to a human Fc from IgG (Homo sapiens, UniProt Q9BYF1); experiment: BLI; hACE2-Fc immobilised on AHC biosensors (1 µg/mL), monomeric VHHs as analytes; PBS working buffer with 300 mM NaCl, pH 7.2, 30 °C; global 1:1 fit, apparent KD; details: both partners purified
T1 construct: human angiotensin-converting enzyme 2, peptidase domain; also called hACE2-Fc; sACE2-Fc

[2] = target: T2, soluble human ACE2 peptidase domain (residues 19-615), untagged (Homo sapiens, UniProt Q9BYF1); experiment: BLI; VHH-His immobilised on Ni-NTA biosensors, soluble hACE2 as analyte; PBS working buffer with 300 mM NaCl, pH 7.2, 30 °C; 1:1 fit, apparent KD; details: both partners purified
T2 construct: human ACE2 peptidase domain, residues 19-615, secreted with an IgK signal peptide; Residues of the thrombin site may remain at the C-terminus after cleavage; also called sACE2; soluble hACE2; source: Expi293F cells with kifunensine, purified (Streptactin, SEC, thrombin cleavage, SEC); not shown: His8, C-terminal, cleaved; Strep, C-terminal, cleaved
T2 sequence (Q9BYF1 19-615): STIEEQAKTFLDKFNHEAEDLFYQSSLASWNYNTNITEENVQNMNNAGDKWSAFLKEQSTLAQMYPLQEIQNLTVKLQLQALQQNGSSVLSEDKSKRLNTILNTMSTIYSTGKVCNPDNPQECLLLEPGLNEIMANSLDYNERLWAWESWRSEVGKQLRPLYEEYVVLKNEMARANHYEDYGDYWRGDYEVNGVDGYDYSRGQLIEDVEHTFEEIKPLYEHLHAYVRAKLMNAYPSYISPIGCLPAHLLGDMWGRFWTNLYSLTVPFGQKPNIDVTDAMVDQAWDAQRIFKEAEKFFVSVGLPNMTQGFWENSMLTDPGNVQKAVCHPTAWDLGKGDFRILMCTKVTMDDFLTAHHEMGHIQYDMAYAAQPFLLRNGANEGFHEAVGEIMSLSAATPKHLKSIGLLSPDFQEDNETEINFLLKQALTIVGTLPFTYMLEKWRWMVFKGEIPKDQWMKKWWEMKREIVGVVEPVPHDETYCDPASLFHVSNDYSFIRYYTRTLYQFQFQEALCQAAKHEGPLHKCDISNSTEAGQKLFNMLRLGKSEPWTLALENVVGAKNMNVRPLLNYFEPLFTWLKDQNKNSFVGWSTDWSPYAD

[3] = target: B1; experiment: flow cytometry on cells; cell lines with exogenous or endogenous ACE2 incubated with 10 µg/mL VHH, 60 min at 4 °C; anti-myc and fluorescent anti-mouse antibody; parental cells or a control VHH as negative controls; details: one partner purified
[4] = target: T3, VHH B07-Fc (VHH B07 in fusion with the human IgG1 Fc segment) (alpaca); experiment: flow cytometry on cells; cell lines with exogenous or endogenous ACE2 incubated with 0.1 µg/mL VHH-Fc, 60 min at 4 °C; fluorescent anti-human IgG antibody; details: one partner purified
T3 construct: also called dimeric VHH-Fc; source: Expi293 cells, transfected, purified from supernatant (HiTrap protein A, SEC Superdex 75); not shown: Fc (human IgG1; hinge, CH2 and CH3), C-terminal, kept

Row | Binder | Kd [1] [nM] | Kd [2] [nM] | binding result [3] | binding result [4]
1 | VHH B07 (VHH, alpaca VHH from phage display (gene IGHV3S53); Expressed from pHEN6 with c-myc and His tags at the C-terminal end; also called anti-hACE2 VHH B07; source: E. coli TG1 periplasm, purified (His pure Cobalt sepharose beads); not shown: c-myc, C-terminal, kept; His, C-terminal, kept) VHH: EVQLQASGGGLVQAGGSLRLSCAASRSTFSTNTIGWYRQAPGKQRELVASISTSGNTYYPDSVKGRFAISRDNAENTVYLQMNSLKPEDTAVYYCNTPSRRISNFWGQGTQVTVSS | 242 | 1140 | binds | 
2 | VHH B09 (VHH, No structure of B09 was solved; also called anti-hACE2 VHH B09; source: E. coli TG1 periplasm, purified (His pure Cobalt sepharose beads); not shown: c-myc, C-terminal, kept; His, C-terminal, kept) VHH: QVQLVESGGGLVQAGGSLRLSCATSRSTFSSNTIGWYRQAPGKQRELVASISTSGNTYYADSVKGRFAISRDNAENTVYLQMNSLKPEDTAVYYCNTPSRRISNFWGQGTQVTVSS | 214 | 1960 | binds | 
3 | VHH B10 (VHH, alpaca VHH from phage display (gene IGHV3-3); also called anti-hACE2 VHH B10; source: E. coli TG1 periplasm, purified (His pure Cobalt sepharose beads); not shown: c-myc, C-terminal, kept; His, C-terminal, kept) VHH: QVQLVESGGGLVQAGDSLRLSCAASGRTFSSYAMGWFRQALGKEREFVAVISGSGTSTYYTDSVKGRFTISRDNAKNTVYLQMNSLKPEDTAVYYCARAKGFSTIYNQDEGRYDYWGQGTQVTVSS | 21 | 22 | binds | 
4 | B1 |  |  |  | binds
